Experiments:
Assay in all cases: direct Nesslerization (ammonia release)
[1] = molecular target: T1, TsAI (Thermococcus sibiricus, UniProt C6A532, D54G/T56Q); format: biochemical; details: 90 °C, 0.05 M Tris-HCl pH 9.0; 0.25–20 mM substrate
T1 construct: gene TSIB_1676; full-length, 331 residues, homodimer
Source text: (§1) direct Nesslerization (ammonia release) on TsAI

[2] = substrate: NC(=O)CC[C@@H](N)C(=O)O; format: biochemical, Thermococcus sibiricus; details: 90 °C, 0.05 M Tris-HCl pH 9.0, 0.25–40 mM substrate
Source text: as §1

[3] = substrate: NC(=O)CC[C@H](N)C(=O)O; format: biochemical, Thermococcus sibiricus; details: 90 °C, 0.05 M Tris-HCl pH 9.0, 0.25–30 mM substrate
Source text: as §1

[4] = substrate: NC(=O)C[C@@H](N)C(=O)O; format: biochemical, Thermococcus sibiricus; details: 90 °C, 0.05 M Tris-HCl pH 9.0, 0.25–30 mM substrate
Source text: as §1

[5] = substrate: NC(=O)C[C@H](N)C(=O)O; format: biochemical, Thermococcus sibiricus; details: 90 °C, 0.05 M Tris-HCl pH 9.0, 0.25–20 mM substrate
Source text: as §1

With `NC(=O)C[C@H](N)C(=O)O` [L-asparagine] the Km [1] was 6.03 ± 0.15 mM.

B1: TsAI (Thermococcus sibiricus MM 739) (protein)
chain: MKKLLIIGTGGTIASAKTEQGYKSVLKIDEILKLAKIKLENGYKIDSTNIMNIDSTLIHPEDWEIIAKEVFKALDDYDGIIITHGTDTLAYTASMLSFMIKNPNKPIVLTGSMLPITENGSDAPRNIRTAIKFAMEDVAGVFVAFMDKIMLGCRTSKVRTLGLNAFMSINYPDVAYVKGEKILYNIPKEKFQPNGSPELDTKYEPRVVVLRVTPGLGGEIIDAVLDAGYKGIVLEGYGAGGLPYRKSNLLSKIKEITPKIPVIMTTQALYDGVDMRKYEVGRKALETGIIPAKDMTKEATITKLMWALGHTKDVEKIREIMHTNYVNEIKS
notes: full-length, 331 residues, homodimer
Molecule B1 has a Km [2] of 13.86 ± 0.86 mM, a Vmax [2] of 180 µM/min and a Km [3] of 11.09 ± 0.25 mM. For the same molecule, the Vmax [3] was 280 µM/min, the Km [4] was 8.63 ± 0.48 mM and the Vmax [4] was 660 µM/min. For the same molecule, the Km [5] was 3.10 ± 0.15 mM and the Vmax [5] was 4020 µM/min.

B2: TsAI (Thermococcus sibiricus MM 739; D54G/T56Q) (protein)
chain: MKKLLIIGTGGTIASAKTEQGYKSVLKIDEILKLAKIKLENGYKIDSTNIMNIGSQLIHPEDWEIIAKEVFKALDDYDGIIITHGTDTLAYTASMLSFMIKNPNKPIVLTGSMLPITENGSDAPRNIRTAIKFAMEDVAGVFVAFMDKIMLGCRTSKVRTLGLNAFMSINYPDVAYVKGEKILYNIPKEKFQPNGSPELDTKYEPRVVVLRVTPGLGGEIIDAVLDAGYKGIVLEGYGAGGLPYRKSNLLSKIKEITPKIPVIMTTQALYDGVDMRKYEVGRKALETGIIPAKDMTKEATITKLMWALGHTKDVEKIREIMHTNYVNEIKS
notes: as for B1
B2 gave a Km [2] of 14.40 ± 1.60 mM, a Vmax [2] of 180 µM/min and a Km [3] of 11.41 ± 0.27 mM. The Vmax [3] was 250 µM/min, the Km [4] was 9.18 ± 0.86 mM and the Vmax [4] was 590 µM/min.

From publication PMC12193700, “Hyperthermophilic L-Asparaginase from Thermococcus sibiricus and Its Double Mutant with Increased Activity: Insights into Substrate Specificity and Structure” (International Journal of Molecular Sciences, 2025)
